Drawing on ChEMBL document CHEMBL1135749, “Stereoselective synthesis and antiviral activity of D-2',3'-didehydro-2',3'-dideoxy-2'-fluoro-4'-thionucleosides” (J Med Chem, 2002), this text covers Km for 1 protein.

The data set deals with Adenosine deaminase (Bos taurus) (UniProt P56658). Briefly: Binding efficiency towards mammalian Adenosine deaminase from calf intestinal mucosa.

In general, Km refers to the substrate concentration at which the rate is half of its maximum.

B1: Adenosine deaminase (Bos taurus), P56658 (protein)
chain: MAQTPAFNKPKVELHVHLDGAIKPETILYYGRKRGIALPADTPEELQNIIGMDKPLSLPEFLAKFDYYMPAIAGCREAVKRIAYEFVEMKAKDGVVYVEVRYSPHLLANSKVEPIPWNQAEGDLTPDEVVSLVNQGLQEGERDFGVKVRSILCCMRHQPSWSSEVVELCKKYREQTVVAIDLAGDETIEGSSLFPGHVKAYAEAVKSGVHRTVHAGEVGSANVVKEAVDTLKTERLGHGYHTLEDATLYNRLRQENMHFEVCPWSSYLTGAWKPDTEHPVVRFKNDQVNYSLNTDDPLIFKSTLDTDYQMTKNEMGFTEEEFKRLNINAAKSSFLPEDEKKELLDLLYKAYGMPSPASAEQCL
Turning to B1, the Michaelis constant (Km) turned out to be 18.3 µM.
